The labels stand for the following.
B1: CPEB3 Ribozyme (parent)
chain: UAACAGGGGGCCACAGCAGAAGCGUUCACGUCGCAGCCCCUGUCAGAUUCUGGUGAAUCUGCGAAUUCUGCUGUAUAUCUC

These results are taken from the RNAGym collection of RNA variant scans (doi:10.1093/nar/gkz1192).

In the series the parent is B1. Put plainly: self-cleavage, relative activity (ratio to wild type); higher = more cleavage; in vitro, sequencing. Summed up: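 Libraries of CPEB3 self-cleaving ribozyme mutants came from rounds of error-prone PCR and carried barcodes, which DNA sequencing matched to variants. In vitro transcription used T7 RNA polymerase at 37°C for 5 hours, with a further 15 min in DNase I before EDTA stopped the reaction; the ribozymes cleaved during both steps. The RNA was reverse transcribed with template switching and sequenced on Illumina. Relative activity is the cleaved/total read fraction of a variant divided by that of the unmutated ribozyme, averaged over three batches with at least 5 reads.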
In the case of A45G U60G, the self-cleavage stood at 0.25.
As to C44U A56G, the self-cleavage was 0.18.
As for A45U A65G, the figure is 0.25; as for A45U A65U, 0.18; as for G46C A64U, 0.11.
Take A45U G73A: the self-cleavage stood at 1.23.
Consider A45U G73U, for which the self-cleavage is 1.2.
With A45U C62U, the self-cleavage amounted to 0.31.
Regarding A45U C62A, the self-cleavage was determined as 0.17.
Consider A45U C62G, for which the self-cleavage amounted to 0.44.
With C44U U69C, the self-cleavage turned out to be 0.17.
With C44U U69A, the self-cleavage was 0.13.
As for A45G C68U, the figure is 0.88; as for A45G C68A, 0.18.
Turning to C44U G52U, the self-cleavage was 0.46.
For A45U G46A, the self-cleavage was 0.41.
Under G46C U78C stands 0.21; under A45G C50G, 0.28; under A45G C50U, 0.74.
With A45G G61C, the self-cleavage was 0.23.
Regarding A45G G61A, the self-cleavage amounted to 0.82.
Take G46A U69C: the self-cleavage was 0.07.
On to C44U U76A, for which the self-cleavage stood at 0.14.
Turning to C44U U76C, the self-cleavage was 0.25.
As for G46A U72C, the self-cleavage was 0.32.
In the case of G46C A47G, the self-cleavage was 0.26.
Consider A45U G70A, for which the self-cleavage turned out to be 0.29.
Take C44U U74C: the self-cleavage worked out at 0.6.
Regarding A45U C79A, the self-cleavage came out at 0.8.
For A45U C79U, the self-cleavage was found to be 0.77.
As to A45U G52C, the self-cleavage was found to be 0.29.
Under G46U A57G stands 0.22; under A45U G61A, 0.46.
Regarding A45U, the self-cleavage amounted to 0.51.
Under A45C stands 0.38.
For the variant A45G, the self-cleavage is 0.85.
As for G46A A65G, the figure is 0.14.
Under G46A A65U stands 0.43.
As for G46U G70A, the self-cleavage was determined as 0.08.
A45G A75U: the self-cleavage amounted to 0.91.
Turning to A45G A75G, the self-cleavage was determined as 0.77.
For A45G A75C, the self-cleavage was determined as 1.01.
As for A45C C62U, the figure is 0.36.
Under A45G U58G stands 0.18.
Consider A45G U58C, for which the self-cleavage came to 0.31.
Turning to A45G U58A, the self-cleavage is 0.31.
Regarding A45U U49C, the self-cleavage was 0.25.
For A45U U49A, the self-cleavage is 0.17.
For C44U U80A, the self-cleavage worked out at 0.46.
Under C44U U80C stands 0.29; under C44G U80C, 0.78; under G46U U51C, 0.28.
Regarding A45C U54C, the self-cleavage amounted to 0.4.
Turning to A45C U54A, the self-cleavage was found to be 0.45.
Turning to A45C A64G, the self-cleavage was 0.32.
As to A45C A64U, the self-cleavage came to 0.
Take A45U U66C: the self-cleavage was 0.27.
As for A45U U66G, the self-cleavage turned out to be 0.13.
A45U U66A: the self-cleavage came out at 0.31.
Consider A45C A47G, for which the self-cleavage turned out to be 0.17.
As for G46C U54A, the figure is 0.15; as for A45U G53A, 0.68; as for A45U G53C, 0.33.
On to A45U G53U, for which the self-cleavage was determined as 0.58.
As for A45C G55C, the figure is 0.11; as for C44U A47G, 0.35.
As for C44U C81A, the figure is 0.11.
A45G U80A: the self-cleavage is 0.91.
As for A45G U80C, the figure is 0.91; as for A45G U80G, 1.02.
Take A45C U74G: the self-cleavage was 0.68.
Turning to A45C U74C, the self-cleavage came to 0.7.
As to C44U U48C, the self-cleavage came out at 0.44.
Regarding G46A G63C, the self-cleavage amounted to 0.62.
Turning to G46U U72A, the self-cleavage was found to be 0.37.
G46A U76A: the self-cleavage came out at 0.5.
On to G46A U76C, for which the self-cleavage was 0.19.
Under G46A U48C stands 0.26.
As for A45G A64U, the self-cleavage was 0.3.
Under A45G A64G stands 0.65; under G46A U49A, 0.33.
As for G46A U49C, the self-cleavage was found to be 0.11.
On to G46A U80C, for which the self-cleavage was found to be 0.37.
For the variant A45G C81A, the self-cleavage was determined as 1.02.
Under A45G C81U stands 1.07.
Consider C44U C62A, for which the self-cleavage amounted to 0.14.
Consider A45G U69A, for which the self-cleavage was 0.42.
Regarding A45G U69G, the self-cleavage was determined as 0.32.
For the variant A45G U69C, the self-cleavage was determined as 0.38.
For C44U U58C, the self-cleavage came out at 0.28.
Turning to C44U, the self-cleavage came out at 0.31.
Take A45U A77U: the self-cleavage stood at 0.55.
For the variant A45U A77G, the self-cleavage was 0.52.
Consider A45U G63C, for which the self-cleavage amounted to 0.66.
Turning to A45U G63U, the self-cleavage was determined as 0.46.
Consider A45U G63A, for which the self-cleavage is 0.54.
Turning to A45U U76A, the self-cleavage is 0.52.
Consider A45U U76C, for which the self-cleavage was found to be 0.49.
Regarding A45U U80C, the self-cleavage was 0.62.
Turning to A45C U66C, the self-cleavage was 0.31.
As to A45G U51G, the self-cleavage was found to be 0.64.
For A45G U51A, the self-cleavage turned out to be 0.74.
Under A45G U51C stands 0.7; under G46C U60C, 0.2.
Turning to G46C U60A, the self-cleavage is 0.11.
Take G46A U67A: the self-cleavage came out at 0.18.
In the case of G46A U67C, the self-cleavage stood at 0.15.
As for A45U C81A, the figure is 0.87; as for A45U C81U, 0.46.
As for G46U U48G, the figure is 0.14; as for G46U U58C, 0.17; as for A45C U72A, 0.38.
Under A45C U72C stands 0.49; under A45C A77G, 0.25; under A45C A77U, 0.39.
In the case of A45C C59U, the self-cleavage is 0.22.
As for A45U U48C, the figure is 0.34; as for A45U U48A, 0.15; as for A45G G70U, 0.33.
A45G G70A: the self-cleavage is 0.42.
For G46C U80A, the self-cleavage is 0.2.
Consider C44U A75U, for which the self-cleavage amounted to 0.31.
With A45U U58A, the self-cleavage was 0.12.
As to A45U U58C, the self-cleavage amounted to 0.29.
With A45U A75U, the self-cleavage came out at 0.55.
Turning to A45U A75G, the self-cleavage turned out to be 0.35.
Regarding G46A U60C, the self-cleavage turned out to be 0.14.
As to G46A U60A, the self-cleavage stood at 0.5.
Turning to A45G A77C, the self-cleavage was determined as 0.48.
A45G A77G: the self-cleavage is 0.87.
As for A45G A77U, the figure is 0.9; as for A45C U58C, 0.33.
Turning to G46C U51A, the self-cleavage turned out to be 0.25.
Turning to A45U A47U, the self-cleavage was determined as 0.24.
As for A45U A47G, the figure is 0.36; as for A45U A47C, 0.22.
Consider G46U G53C, for which the self-cleavage worked out at 0.23.
Regarding A45C U76A, the self-cleavage was determined as 0.5.
As for G46U U69A, the self-cleavage is 0.22.
Take G46U U69C: the self-cleavage stood at 0.53.
On to A45G G52C, for which the self-cleavage worked out at 0.91.
As for A45G G52U, the self-cleavage came out at 0.94.
Regarding A45G G52A, the self-cleavage came to 0.94.
On to A45G U76C, for which the self-cleavage came to 0.79.
As for A45G U76G, the figure is 0.97; as for A45G U76A, 0.96.
Consider A45C U51C, for which the self-cleavage is 0.32.
For A45C U51A, the self-cleavage worked out at 0.41.
Under G46A U74C stands 0.48; under G46C U49A, 0.04; under A45G U48G, 0.19.
A45G U48C: the self-cleavage stood at 0.29.
Regarding A45G U48A, the self-cleavage turned out to be 0.39.
Under A45C U69A stands 0.14; under A45C U69C, 0.27; under G46U U66C, 0.16.
Take A45G G46A: the self-cleavage amounted to 0.29.
For A45G G46U, the self-cleavage stood at 0.21.
With A45G A65G, the self-cleavage was determined as 0.35.
Regarding A45G A65U, the self-cleavage came to 0.27.
Regarding A45G A65C, the self-cleavage amounted to 0.24.
With A45C G63C, the self-cleavage was found to be 0.52.
As for A45C G63A, the figure is 0.49.
On to A45G C79A, for which the self-cleavage stood at 1.13.
In the case of A45G C79G, the self-cleavage is 1.12.
For A45U C71A, the self-cleavage worked out at 0.1.
Consider A45U C71U, for which the self-cleavage came out at 0.13.
